The record followed here is patent US20260055150A1, “GRAIL-1 PEPTIDE PRODUCTS AND METHODS” (REGENTS OF THE UNIVERSITY OF MICHIGAN, priority 2022, published 2026).

The target of this experiment is T1, claudin-1 (Homo sapiens, UniProt O95832).
T1 construct: endogenous in cells; host or cells: colonic PDO implanted in mouse rectum
T1 sequence (O95832 1-211): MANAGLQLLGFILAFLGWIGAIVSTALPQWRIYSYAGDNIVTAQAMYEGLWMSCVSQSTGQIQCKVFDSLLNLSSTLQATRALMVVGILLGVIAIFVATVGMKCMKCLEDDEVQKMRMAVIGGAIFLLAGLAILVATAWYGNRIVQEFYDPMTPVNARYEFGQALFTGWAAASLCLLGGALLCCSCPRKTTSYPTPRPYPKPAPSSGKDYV
Kind of experiment: In vivo fluorescence imaging with RTS*-Cy5.5. Further details: species or system mouse. The following applies: after intravenous administration. As to the method:
(A) Photo of is shown of a flexible fiber-coupled side-view confocal endomicroscope. […] Confocal images show claudin-1 expression from (D) dysplasia and (E) normal colonic mucosa with subcellular resolution. Images were collected ˜1 hour post-injection of RTS*-Cy5.5. Crypt structures and individual cells can be identified. Key: crypt (arrow), tight junction (arrowhead), lumen (I), colonocyte (c), goblet cell (g), lamina propria (lp).
This instrument has a diameter of 4.2 mm, which is small enough to perform repetitive in vivo imaging in mouse colon. The focusing optics provide a spatial resolution of 1.2 μm. A rigid wide-field endoscope was used first to collect white light (WL) and NIR fluorescence (FL) images to identify the approximate location of the implanted PDOs. Landmarks defined by the clockwise location of and distance from the anus to the distal tip of the endoscope were used to approximately locate the implanted PDOs for collection of confocal images. Tumor size and volume were estimated using a calibrated gauge passed through the instrument channel of the rigid endoscope. […] Differences in the spatial pattern of target expression between dysplasia and surrounding normal mucosa for colonic PDOs can be seen (FIG. 18D,E).

For the substance “RTS*-Cy5.5: Cy5.5-labeled peptide RTSPSSR, specific for claudin-1”, the “fluorescence intensity from implanted colonic PDO” value was “strong intensity”.
